The DeepSol protein solubility set

assay: soluble on expression in E. coli; label from the status in PepcDB or PDB records

Sequence | soluble on expression in E. coli
MSRNDLFKQPLDTINVGIDFIHEDMKKQGIPSHQVNWAPPANGDPELLKLLDQLKNPTLYEKIQQANEEAVTRIIQSKPILVGFDKAINVMPDMTETTILHAGPPITYENMCGPMKGAVQGALVFEGLAKDLADADRVARSGAITFSPCHEHDAVGSMAGVTSPNMYVHIIKNETYGNTAFTNLSEQLAKVLRFGANDQSVVDRLIWMRDVLGPLLHDAMTFCPEGIDLRLMLSQALHMGDECHNRNVAGSTLLVQALTPYMVQTDFSREQLKEVFEFLGSSDYFSGPTWMGAAKCALDAGHNVENSTIVTTMCRNGVEFGIRVSGIGGNHWFTGPAQRVIGPMFAGYTQEDAGLDMGDSAITETYGVGGFAMAAAPAIVPLVGGTVAEALNYSKEMLEITTKENPNVTIPVLDFMGIPTGIDVLKVLETGMLPVINTAIAHKEPGIGMIGAGLTNPPANVFNEALKALVATIN | soluble
MNPAPERTVMQHVRPLPYEADFTGFLSNTVAPRWMEALRIQRMRTCFPHFDSGAPQHLCIITETTVRYRKPVRYSDAIVGKAWLQSARYSRWIIAFSFAFEFSGLPAFEGRQAGTFIDPLEHHHHHH | not soluble
MRIGLFTDTYFPQVSGVATSIRTLKEELEKEGHEVYIFTTTDRDVKRFEDPTIIRLPSVPFVSFTDRRVVYRGLISSYKIAKHYNLDIIHTQTEFSLGLLGKMIGKALRIPVVHTYHTQYEDYVSYIANGKIIRPSMVKPLLRGYLKDLDGVICPSRIVLNLLEGYEVTIPKRVIPTGIPLEKYIRDDITAEEVTNLKAELGIAGDETMLLSLSRISYEKNIQAIINQMPAILAENAKIKLIIVGNGPYLQDLKHLAMQLEVDKHVTFTGMVPHDKVALYYKACDFFISASTSETQGLTYIESLASGTPIIAHGNPYLDDVVTDKMFGTLYYAETDLTDAIIDAILKTPVMDKRLLAKKRYEISAQHFGKSIYTFYLDTLIARNSKEAQKLSLYLNHSGKSSSLKLVQGAIHLPKRAAKVTAITSVKVVKAPIKLVHAIKDFLD | not soluble
MFALVLFVCYLDGGCEDIVVDIYDTEQHCLYSMDDQRIRHGGCFPVEDFIDGFWRPAQQYSDFLEHHHHHH | not soluble
MNYIGSKYKLIPFIKENIHAVVGDNLSGTIFCDLFAGTGIVGRAFKKAVNKVISNDLEYYSFVLNQNYIGNIQEIPNQEELINEINSVALKKGFIYSYYSLGGSSRQYFSETNAQKIDAMRLKIEELKLSQNIDNCTYYFLLASLLESADKVANTASVYGAFLKRLKKSAQKELILKGADFDLSLNANEVYQQDASELIGKISGDILYLDPPYNARQYGANYHLLNTIAIYTPFAPKGKTGLPSYQKSSFCSRAKILNAFENLIKTARFKYIFLSYNNEGLMSETEIGNILKKYGTYSLMTKTYMRFKADNKRTHKAAHTKECLHILIK | not soluble
MGNFHATTIFAVHHNGECAMAGDGQVTMGNAVVMKHTARKVRKLFQGKVLAGFAGSVADAFTLFEMFEGKLEEYNGNLQRAAVEMAKQWRGDKMLRQLEAMLIVMDKTTMLLVSGTGEVIEPDDGILAIGSGGNYALSAGRALKQYASEHLTAKQIAKASLEIAGDICVYTNHNIIVEEL | not soluble
MSLLKQKITQAPKTKISQTLRSWLPILQANIEDLKENLDKFAEDNPFLNVQDSIQTHDKGKNYFDSFYKHNVNSAFVDSKGLAKKSVYELLNEQILPPLFPTNKSQELAKKIIECLNEEGYFEYDEEFLKEYSLEEIERVRARFKFLDPVGVGAKDYKEAFLFALENMELDEDIDEFCRMLIMDFENIQNYTKEPLYKEALAVLKRFSTPPFLEYFEDSRIIVPDIFVYKENGEIKVKINDDYYPEISIQTDGLEHDFLSHYIKEAKNLVDALAMRKATLYKIGLMIVEYQYDFFMGKEIKPMTFKDLALDLERNASTISRAVANKYLSCERGLIPLRDFFAFALDEEGETSNVGVKEFVANLVKNEDRNKPLSDSKILELIKEEFKVDIGRRTITKYRKHLNIASSTDRKKLYELEGEGHHHHHH | soluble
MATPETRRRPNILVTGSPGTGKSTLGQQVAEKLGFVFIEVSKEVRENNLQGDFDEQYNCHVLDEDKLLDHISDRLDSDEGGIVVDYHGCDLFPERWFDVVVVLRCPTEKLYDRLQSRGYSEFKIKENVECEIFGTLLEEARESYSEDIVHELQSETTEQMEENLERICELAGEFKNEHTMEQ | not soluble
MKIALIGATGMAGSRILEELVSRGHYVKALARDTHKVADTERVMAVDIDLNDHDALVEALRGQDAVISAVRFHGLDANALFNAIHDSKVKRYLVVGGAGSLHVPHQNTRVLDSEDFPEAYKPEAEAAAHFLDKLKEKDDLDWTFISPSAEFGPGKRTGEFRLGKDELLVGEEGSKISAEDFAVALADELEHNNHIQQRFTVGYLEHHHHHH | not soluble
MARAIAIDAPLSAGIRRTKKSPIKRASVGGVKKRFSTGTAGPSRRPTAQPRRQSGGIRTVDRSIPANENREVRINLSNLAHTVHSGDLRQLFAEFKIRNVSVNFNEHGKPVGTGDVTLPKRHADRLIQKFAGVSLDGKEIKFAIIDSANIANRVKFPEAPRRAPSNGRPAQRAPKRQNVKSGKPTGGAGAQKKLKAKKPKREAQPKKTLEELDAELDVYMSKA | not soluble
SNAMSGNGNAAATAEENSPKMRVIRVGTRKSQLARIQTDSVVATLKASYPGLQFEIIAMSTTGDKILDTALSKIGEKSLFTKELEHALEKNEVDLVVHSLKDLPTVLPPGFTIGAICKRENPHDAVVFHPKFVGKTLETLPEKSVVGTSSLRRAAQLQRKFPHLEFRSIRGNLNTRLRKLDEQQEFSAIILATAGLQRMGWHNRVGQILHPEECMYAVGQGALGVEVRAKDQDILDLVGVLHDPETLLRCIAERAFLRHLEGGCSVPVAVHTAMKDGQLYLTGGVWSLDGSDSIQETMQATIHVPAQHEDGPEDDPQLVGITARNIPRGPQLAAQNLGISLANLLLSKGAKNILDVARQLNDAH | soluble
KMFSYEGQVIIVTGDEKSTEFCNTATANYDSFRAGPVFDGTGLNPFCFVAHDFTADYLPNGQAKMFSSNVSYAQGDRIFDDVSTWDDYSLRVNHPLRIAGDRVYLQGHGYAPTFSIQWPNGEKRTQTVQWQPTDPTFFLSDGVVRFDPPAGMNDSVYDRRQHQLAIQGLFAPTASWEGENHELLTSRFPAMTDPAVAIDVYRGDNGLDSGKGQNLFKLDTSLVHSGQLQRLERVNLTKGESVTLDDGTVVTFEGAEEFANYQISHDPTQ | not soluble
PSQVFKPLVSLFSPIEPSVYEARGRLPREQLGETRLDYDRTFQLASVEAARLGIAEPIGELYYSFEYNFFGAGFGDHDDPMGKSWLFFHGSDGRLLGQEVAGQGSWGERFYRLQYPIHGGRIAGLPGR | not soluble
MNLVETAQAIKTGKVSLGIELGSTRIKAVLITDDFNTIASGSYVWENQFVDGTWTYALEDVWTGIQQSYTQLAADVRSKYHMSLKHINAIGISAMMHGYLAFDQQAKLLVPFRTWRNNITGQAADELTELFDFNIPQRWSIAHLYQAILNNEAHVKQVDFITTLAGYVTWKLSGEKVLGIGDASGVFPIDETTDTYNQTMLTKFSQLDKVKPYSWDIRHILPRVLPAGAIAGKLTAAGASLLDQSGTLDAGSVIAPPEGDAGTGMVGTNSVRKRTGNISVGTSAFSMNVLDKPLSKVYRDIDIVMTPDGSPVAMVHVNNCSSDINAWATIFHEFAARLGMELKPDRLYETLFLESTRADADAGGLANYSYQSGENITKIQAGRPLFVRTPNSKFSLPNFMLTQLYAAFAPLQLGMDILVNEEHVQTDVMIAQGGLFRTPVIGQQVLANALNIPITVMSTAGEGGPWGMAVLANFACRQTAMNLEDFLDQEVFKEPESMTLSPEPERVAGYREFIQRYQAGLPVEAAAGQAIKYLEHHHHHH | soluble
GHMLDVAPPVITPRGTKIEPSAGAPFEAVRVARDVLHTSRTAALATLDPVSGYPYTTATNIGIEPDGTPFFFAAGLTLHARNMETDARISVTLAPFGKGDALTLPRLTLVGRADRIGPDEVPLAIARYIARYPKAKLYLSLPDTRLYRLRTEGVQINGGPARNASNITPADLRTDLSGAEELMAAAESEATRLNAIKGEASRLAVLAGAKTGRWKITSIDPDGIDLASASDLARLWFAERVETLKQFEKALAQLLKGS | soluble
MTTHQVKKSEAKRQHILDSGFHLVLRKGFVGVGLQEILKTSGVPKGSFYHYFESKEAFGCELLKHYISDYQIRLNQLWTTETSARDKLMNYLQCWVKDPATEQSWAESCLIVKMAAEVADLSEDMRLIMNDGVKRLIARMADLIRIGQQEGSIQTSVVPDVLAQVIYQMYLGAALLSKLYKHKAPLFQALESTKMMLDGCNHVQQDKNQ | soluble
MGSDKIHHHHHHMNILVIGANGGVGSLLVQQLAKENVPFTAGVRQSDQLNALKSQGMKAILVDVENDSIETLTETFKPFDKVIFSVGSGGNTGADKTIIVDLDGAVKSMIASKEANIKHYVMVSTYDSRRQAFDDSGDLKPYTIAKHYADDYLRRSGLNYTILHPGALTNAAGSGKIEAAQYFDGKGEIPREDVATVLKEIVTSNHFNHQEFQIISGEQDIKDALTQFEIEKD | not soluble
MKKIKALALFSGGLDSLLSMKLLIDQGIEVTALHFNIGFGGNKDKREYFENATAQIGAKLLVCDIREQFFNDVLFKPKYGYGKYFNPCIDCHANMFRNAFYKMLELNADFVLSGEVLGQRPKSQRKEALNQVRKLVREVGEEARFDPVLDRTQAGGKKPQFLDELLLRPMSAKLLEPTFMEKKGFVDREKLLDVSGRGRSRQLQMIKDYGLKYYEKPGGGCLLTDIQVSNKIKNLKEYREMVFEDSVIVKNGRYFVLPHNARLVVARNEEENHKLDIQHPLMDKIELLNCKGPLSLVDKNASKEDKELAGRIALGYAKTLKNQAYLIQIGDEKRELYPLDKENAREYLFALEHHHHHH | soluble
MGSDKIHHHHHHMIGDEPIRIRQLQALNILAESGTMSLTAKAMNISQPAVSRLLSDLSKELGYPLFSRSGRRLTLTREAQYLLPEIQRIFGAMGQIRNLRQNIQDGTSGHLKIACLPGFSTSHLPGVVADFLAARPKTTLTIEPDRPERILDWVIGEQYDCGITDGFRSHHALDSKTIPIRCVCIFPEGHPLEAKSVIHPEDLAGERIAHDRFGSEFYLRLRDILDAEGIAMDNFIETRQFTCACELVSKGVCVSVVSELDAQEYIGKGVSFRPFSANITHQLSLVWPRHTPTSILTLEFLGLFEKSLEPYAMTET | not soluble
MISSLAVEFGALRLACTSKIVMATRNMPARGTKPLPRHLWDMSDLEEKTSGQYTHKPLRINRLGGRDPETGRKVNQHIGGGVKFDYFMIDFHRRGPADQGATYDERILEIRRDPNRTCHIALCAGINGKRWILATENMKAGDVISTSGHLSENPVIGVEGNAYPIGSLAAGTVINSIERYPTMDSETFVKAAGTSATIVRHQGDFTVVKLPHKHEFSLHRTCMATVGRLSHADIDGKIFGSAQMHRRFGYKMSSGLFHKKDGYFGRKVRALPPVRILDTPPQAPPPNQRFTLSKKDLSGLHGHAKVHNLIPAGYSTRDYPE | not soluble
MKQFKIRSVLQSIALLVLAGTAAAEPKPEKITHGRFEQIPVLRPDGEPQRVVIWFSDAGHVDQRTRQAEILRQDGAMVALVDTTHLYKVLAADSNHCTFSVGDVENLSRYLQAYYRDKTYRLPLLVGDGDGSGLVYAVAAQATENILAGVVSDGLCPVVVPTQAVCGAGVASDQHLKPAPVAAPLLVMTVSSAHCPAQLTSGFVRKVALGREIRLAASADLLPRLRAALRVLGAQKGVSLPPPPADLDGLPVVEVPSKAQKKSDTFAIFVSGDGGWAEIDKKVAGHLADADIPVVGLDSLRYFWSERTPEGFAKDLDRIARFYAHHWKRNRLLLVGFSQGADVLPAAINKLSPNTRQIIRMTALLSLGKYAHYEFHVSNWISTDDEGIPIAPDMVKLRSTRTVCIYGVDDQETLCPSLPQQNRRVALPGTHHFNGDYETVAKTILAQMEAAPLEHHHHHH | not soluble
